In article PMC7666158 one finds response data, which are given here for 1 variant.

B1: Sbit-ATF2(19–100), ATF2 TAD wild type (NanoBiT probe) [human] / Lbit-JNK1 (NanoBiT probe) [human] (parent)
chain 1: MSDDKPFLCTAPGCGQRFTNEDHLAVHKHKHEMTLKFGPARNDSVIVADQTPTPTRFLKNCEEVGLFNELASPFENEFKKAS
chain 2: MSRSKRDNNFYSVEIGDSTFTVLKRYQNLKPIGSGAQGIVCAAYDAILERNVAIKKLSRPFQNQTHAKRAYRELVLMKCVNHKNIIGLLNVFTPQKSLEEFQDVYIVMELMDANLCQVIQMELDHERMSYLLYQMLCGIKHLHSAGIIHRDLKPSNIVVKSDCTLKILDFGLARTAGTSFMMTPYVVTRYYRAPEVILGMGYKENVDLWSVGCIMGEMVCHKILFPGRDYIDQWNKVIEQLGTPCPEFMKKLQPTVRTYVENRPKYAGYSFEKLFPDVLFPADSEHNKLKASQARDLLSKMLVIDASKRISVDEALQHPYINVWYDPSEAEAPPPKIPDKQLDEREHTIEEWKELIYKEVMDLEERTKNGVIRGQPSPLGAAVINGSQHPSSSSSVNDVSSMSTDPTLASDTDSSLEAAAGPLGCCR

Variants of B1 are the subject of the assay. Put plainly: NanoBit luciferase complementation in HEK293T cells. The settings on record: with Lbit-JNK1 (NanoBiT probe) [human]; anisomycin (30 min); normalized to control (−) = 1.0; read off a plot; scale: relative luminescence intensity.
Take chain 1 K30E: the response came to 1.
